Laboratory results reported in US20030152952.

What follows are sequences tested on N.BstNBI nicking endonuclease (assay: cleavage_in_vitro). Conditions: duplex 2; repeat 9a 21.3.
With “CCTACGACTGGAACAATAAAACCTACGACTGGA / TCCAGTCGTAGGTGAGTCTGTTCCAGTCGTAGG [Duplex 2/9a T-1/B-2 5 mismatches]” the activity (relative mass units) was 18.5.

Same assay, conditions: duplex 7; repeat 8a 23.4
For “CCTACGACTGGAACAGTAACACCTACGACTGGA / TCCAGTCGTAGGTGAGTCTGTTCCAGTCGTAGG [Duplex 7/8a T-1/B-7 3 mismatches]”, the activity (relative mass units) was 21.2.

Same assay, conditions: duplex 9f; 9k printed with same T strand gave 22.6
“CCTACGACTGGAACAATAAAACCTACGACTGGA / TCGTAGGTGAGTCTGTTCCAGTCGTAGG [Duplex 9f/9k T-1f/B-2]” was tested, and the activity (relative mass units) was 15.9.

Same assay, conditions: duplex 9g; 9l printed with same strands gave 22.5
Sequence “CCTACGACTGGAACAATAAAACCTACGACTGGA / CGTAGGTGAGTCTGTTCCAGTCGTAGG [Duplex 9g/9l T-1g/B-2]” has an activity (relative mass units) of 28.3.

Same assay, conditions: nicking coupled to Vent exo- extension, LC/MS of released fragment, Mg2+, trehalose, 60 C 1 h
“CCTACGACTGGAACAGACTCACCTACGACTGGA (double strand) [Duplex 1 T-1/B-1 perfect]” showed an activity (relative mass units) of 121.

Same assay, conditions: same conditions
“CCTACGACTGGAACAGTAACACCTACGACTGGA / CCAGTCGTAGGTGAGTCTGTTCCAGTCGTAGG [Duplex 8b T-1b/B-7]” was tested, and the activity (relative mass units) was 28.3.
“CCTACGACTGGAACAATAAAACCTACGACTGGA / GAGTCTGTTCCAGTCGTAGG [Duplex 9n T-1n/B-2]” was tested, and the activity (relative mass units) was 14.3.
Work on “CCTACGACTGGAACAATAAAACCTACGACTGGA / TGAGTCTGTTCCAGTCGTAGG [Duplex 9m T-1m/B-2]” yielded an activity (relative mass units) of 13.5.
For “CCTACGACTGGAACAGTAACACCTACGACTGGA / TGAGTCTGTTCCAGTCGTAGG [Duplex 8m T-1m/B-7]”, the activity (relative mass units) was 18.3.
In the case of “CCTACGACTGGAACAGTAACACCTACGACTGGA / GTAGGTGAGTCTGTTCCAGTCGTAGG [Duplex 8h T-1h/B-7]”, the activity (relative mass units) is reported as 12.3.
In the case of “CCTACGACTGGAACAATAAAACCTACGACTGGA / TAGGTGAGTCTGTTCCAGTCGTAGG [Duplex 9i T-1i/B-2]”, the activity (relative mass units) is reported as 23.9.
In the case of “CCTACGACTGGAACAGACACACCTACGACTGGA / TCCAGTCGTAGGTGAGTCTGTTCCAGTCGTAGG [Duplex 4 T-1/B-4 1 mismatch]”, the activity (relative mass units) is reported as 61.5.
For “CCTACGACTGGAACAATAAAACCTACGACTGGA / AGTCGTAGGTGAGTCTGTTCCAGTCGTAGG [Duplex 9d T-1d/B-2]”, the activity (relative mass units) was 15.3.
With “CCTACGACTGGAACAGTCTCACCTACGACTGGA / TCCAGTCGTAGGTGAGTCTGTTCCAGTCGTAGG [Duplex 5 T-1/B-5 1 mismatch]” the activity (relative mass units) was 63.
“CCTACGACTGGAACAGTAACACCTACGACTGGA / TAGGTGAGTCTGTTCCAGTCGTAGG [Duplex 8i T-1i/B-7]” was tested, and the activity (relative mass units) was 14.9.
Sequence “CCTACGACTGGAACAGAAACACCTACGACTGGA / TCCAGTCGTAGGTGAGTCTGTTCCAGTCGTAGG [Duplex 6 T-1/B-6 2 mismatches]” has an activity (relative mass units) of 45.
“CCTACGACTGGAACAGTAACACCTACGACTGGA / AGTCGTAGGTGAGTCTGTTCCAGTCGTAGG [Duplex 8d T-1d/B-7]” showed an activity (relative mass units) of 29.2.
“CCTACGACTGGAACAGTAACACCTACGACTGGA / GTGAGTCTGTTCCAGTCGTAGG [Duplex 8l T-1l/B-7]” gave an activity (relative mass units) of 15.6.
With “CCTACGACTGGAACAGTAACACCTACGACTGGA / TCGTAGGTGAGTCTGTTCCAGTCGTAGG [Duplex 8f T-1f/B-7]” the activity (relative mass units) was 17.8.
For “CCTACGACTGGAACAGTAACACCTACGACTGGA / GAGTCTGTTCCAGTCGTAGG [Duplex 8n T-1n/B-7]”, the activity (relative mass units) was 12.5.
With “CCTACGACTGGAACAGTAACACCTACGACTGGA / CGTAGGTGAGTCTGTTCCAGTCGTAGG [Duplex 8g T-1g/B-7]” the activity (relative mass units) was 20.8.
For “CCTACGACTGGAACAGTAACACCTACGACTGGA / CAGTCGTAGGTGAGTCTGTTCCAGTCGTAGG [Duplex 8c T-1c/B-7]”, the activity (relative mass units) was 11.5.
“CCTACGACTGGAACAATAAAACCTACGACTGGA / GTAGGTGAGTCTGTTCCAGTCGTAGG [Duplex 9h T-1h/B-2]” gave an activity (relative mass units) of 22.7.
Sequence “CCTACGACTGGAACAATAAAACCTACGACTGGA / CAGTCGTAGGTGAGTCTGTTCCAGTCGTAGG [Duplex 9c T-1c/B-2]” has an activity (relative mass units) of 19.2.
Sequence “CCTACGACTGGAACAGATTCACCTACGACTGGA / TCCAGTCGTAGGTGAGTCTGTTCCAGTCGTAGG [Duplex 3 T-1/B-3 1 mismatch]” has an activity (relative mass units) of 66.7.
With “CCTACGACTGGAACAGTAACACCTACGACTGGA / GGTGAGTCTGTTCCAGTCGTAGG [Duplex 8k T-1k/B-7]” the activity (relative mass units) was 19.3.
For “CCTACGACTGGAACAATAAAACCTACGACTGGA / CCAGTCGTAGGTGAGTCTGTTCCAGTCGTAGG [Duplex 9b T-1b/B-2]”, the activity (relative mass units) was 17.8.
Work on “CCTACGACTGGAACAATAAAACCTACGACTGGA / GTCGTAGGTGAGTCTGTTCCAGTCGTAGG [Duplex 9e T-1e/B-2]” yielded an activity (relative mass units) of 14.
“CCTACGACTGGAACAGTAACACCTACGACTGGA / GTCGTAGGTGAGTCTGTTCCAGTCGTAGG [Duplex 8e T-1e/B-7]” showed an activity (relative mass units) of 14.6.
“CCTACGACTGGAACAATAAAACCTACGACTGGA / AGGTGAGTCTGTTCCAGTCGTAGG [Duplex 9j T-1j/B-2]” was tested, and the activity (relative mass units) was 21.4.
“CCTACGACTGGAACAGTAACACCTACGACTGGA / AGGTGAGTCTGTTCCAGTCGTAGG [Duplex 8j T-1j/B-7]” showed an activity (relative mass units) of 18.3.
